Laboratory results published in publication PMC4956256.

Experiments:
[1] = target: soluble CD4 receptor ligand, CD4-Fc (sCD4) (UniProt P01730); assay: SPR; BIAcore 3000; about 200 RU of sCD4 immobilised directly on a CM5 chip by amine coupling; varying concentrations of gp120 injected at 100 ul/min; 25°C; PBS + 0.1% BSA; 1:1 Langmuir fit
[2] = target: TV1.C gp120 monomer (HIV-1 subtype C, strain TV1.C); assay: SEC + other: SDS-PAGE; purified TV1.C gp120; SDS-PAGE under reduced and non-reduced conditions; SEC-HPLC under non-reduced and reduced (otherwise native) conditions

**Q.** With 1086.C gp120 monomer (natural protein) as the substance, how does the Kd [1] read?
**A.** 26.6 nM

**Q.** How did the Kd [1] turn out when TV1.C gp120 monomer (natural protein) was run?
**A.** 148 nM

**Q.** What about the stoichiometry N [2] of the same substance?
**A.** 2
